Test results from patent publication US20140212436A1.

Tests used:
FcγRIIaR (human) = FcγRIIaR (human) (UniProt P12318); experiment: Biacore
[1] = target: recombinant human FcγRIIb protein (human) (UniProt P31994); experiment: Biacore
Sequence of recombinant human FcγRIIb protein (human) (P31994 46-217 limits assumed): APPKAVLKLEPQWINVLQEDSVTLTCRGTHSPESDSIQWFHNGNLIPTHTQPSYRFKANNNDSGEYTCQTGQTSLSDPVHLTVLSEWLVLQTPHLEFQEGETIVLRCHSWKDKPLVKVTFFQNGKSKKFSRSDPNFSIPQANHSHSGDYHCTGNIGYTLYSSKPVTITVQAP

Sequence of FcγRIIaR (human) (P12318 34-217 H167R limits assumed): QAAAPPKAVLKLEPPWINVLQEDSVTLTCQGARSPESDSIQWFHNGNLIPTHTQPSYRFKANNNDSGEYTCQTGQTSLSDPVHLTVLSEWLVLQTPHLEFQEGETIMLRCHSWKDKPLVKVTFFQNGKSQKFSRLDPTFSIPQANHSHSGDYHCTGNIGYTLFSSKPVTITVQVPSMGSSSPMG

Substance	Fold (FcγRIIaR (human))	Kd (FcγRIIaR (human)) [µM]	Fold [1]	Kd [1] [µM]
L234S (antibody)	0.693	1.24	0.192	7.64
G236A/G237A (antibody)			0.0578	25.4
L234E/H268D (antibody)			5.89	0.249
S239D/H268D/L328Y/I332E (antibody)			54.1	0.0271
S239D/L328F/I332E (antibody)			8.34	0.176
S267E/N325L (antibody)	41.5	0.0207	31.5	0.0466
L234W/G236D/S239E/S267E (antibody)	5.69	0.151	11.4	0.129
L235H (antibody)	0.756	1.14	0.734	2
H268D/L328W/I332E (antibody)			39.8	0.0369
K326W (antibody)			3.04	0.483
S239D/A327D/L328Y (antibody)			11.9	0.123
L234G (antibody)	0.0859	10	0.147	10
P331S (antibody)			0.0372	39.4
H268D/L328Y (antibody)			1.91	0.767
L235N (antibody)	0.0356	24.1	0.147	10
L235F/L328Y/I332E (antibody)			3.31	0.443
G236R (antibody)	0.00859	100	0.0147	100
L234V (antibody)	0.134	6.42	0.456	3.22
G237P (antibody)	0.00859	100	0.0147	100
S239D/H268D/L328Y (antibody)			24.4	0.0601
G236Q (antibody)	0.0859	10	0.147	10
G237S (antibody)	0.081	10.6	0.147	10
H268D/A327D/L328Y (antibody)			3.49	0.42
H268D/L328Y/I332E (antibody)			4.89	0.3
G236S/G237A (antibody)			0.0797	18.4

Substance	Fold (FcγRIIaR (human))	Kd (FcγRIIaR (human)) [µM]	Fold [1]	Kd [1] [µM]
S298D (antibody)	1.45	0.592	0.797	1.84
L234W/S239D/L328Y (antibody)			32.8	0.0448
K326E (antibody)			6.09	0.241
S239D/L328Y/I332E (antibody)			7.41	0.198
L234W/L328Y/I332E (antibody)			6.32	0.232
L234Q (antibody)	0.0372	23.1	0.147	10
G237Q (antibody)	0.0859	10	0.147	10
D265E (antibody)	0.307	2.79	0.417	3.52
G236E/S267E (antibody)	36.5	0.0235	11.4	0.129
A327G (antibody)	0.319	2.69	0.353	4.16
L235T/S267E (antibody)	3.06	0.281	2.37	0.619
L235E (antibody)	0.333	2.58	0.55	2.67
S239D/H268D/L328F (antibody)			8.79	0.167
L234W/S239E/S267E (antibody)	98.5	0.00872	42.3	0.0347
L235S (antibody)	0.00859	100	0.0147	100
L234D/G236N/S267E (antibody)	0.728	1.18	5.11	0.287
L234Y (antibody)	0.0511	16.8	0.0237	61.9
S267D/H268D (antibody)			14.2	0.103
L235F/H268D/L328Y (antibody)			3.97	0.37
L328Y/I332E (antibody)			2.08	0.705
S239D/H268D/L328W/I332E (antibody)			27.8	0.0527
V266D (antibody)	0.704	1.22	0.147	10
A330K (antibody)			1.55	0.947
G237K (antibody)	0.00859	100	0.0147	100
H268Q (antibody)	1.58	0.544		

Substance	Fold (FcγRIIaR (human))	Kd (FcγRIIaR (human)) [µM]	Fold [1]	Kd [1] [µM]
G237E (antibody)	0.00859	100	0.0147	100
S239D/S267D (antibody)			22.3	0.0659
S239D/S267E/I332E (antibody)			124	0.0118
G236D/H268D (antibody)			11.6	0.126
L235S/S267E (antibody)				37.8
H268D/A327D (antibody)			7.68	0.191
A327D/L328Y/I332E (antibody)			2.31	0.636
L234W/H268D/L328Y (antibody)			5.92	0.248
G236M (antibody)	0.0859	10	0.147	10
S239D/K326D/L328Y (antibody)			13	0.113
S239D/L328Y (antibody)			5.56	0.264
H268E/L328Y/I332E (antibody)			8.53	0.172
S239D/H268D/L328W (antibody)			51.1	0.0287
G236V (antibody)	0.106	8.08	0.0147	100
H268N (antibody)	1.79	0.481	1.17	1.25
L235D/S239D (antibody)			4.11	0.357
L234K (antibody)	0.00859	100	0.0147	100
L235Y/G236D/S267E (antibody)	9.67	0.0888	25	0.0587
L234P (antibody)	0.0141	60.7	0.0644	22.8
S267D/A327D (antibody)			6.89	0.213
K326D/L328Y/I332E (antibody)			2.65	0.553
S267E/L328Q (antibody)			12.1	0.121
S267E/L328I (antibody)	74	0.0116	53.4	0.0275
L235R (antibody)	1.02	0.838	5.58	0.263
S267D/A327E (antibody)			12.1	0.121

Substance	Fold (FcγRIIaR (human))	Kd (FcγRIIaR (human)) [µM]	Fold [1]	Kd [1] [µM]
S267E/L328H (antibody)	4.64	0.185	5.17	0.284
G236P (antibody)	0.0859	10	0.147	10
S239D/H268D/L328F/I332E (antibody)			53.2	0.0276
H268D/L328F/I332E (antibody)			12.3	0.119
S239D/H268E/L328Y (antibody)			21.7	0.0677
G236W (antibody)	0.0859	10	0.147	10
S239D/H268D (antibody)			14.4	0.102
G237V (antibody)	0.0342	25.1	0.147	10
L235P (antibody)	0.122	7.01	0.00585	251
H268D/K326D/L328Y (antibody)			18.6	0.0789
G237Y (antibody)	0.902	0.952	0.33	4.45
S267D/H268E (antibody)			17.8	0.0826
S267A/H268D/L328Y (antibody)			10.7	0.137
P329E (antibody)	0.0859	10	0.147	10
S267A/L328Y/I332E (antibody)			13.5	0.109
S239D/S267A/L328Y (antibody)			19.8	0.0741
G236K (antibody)	0.00859	100	0.0147	100
A327Q (antibody)	0.634	1.35	0.011	134
L235F/S239D/L328Y (antibody)			6.82	0.215
S267E/H268D (antibody)			33.3	0.044
A330S (antibody)			0.0635	23.1
L234I (antibody)	0.0554	15.5	0.108	13.6
G236H (antibody)	0.135	6.35		
L235Q (antibody)	2.04	0.42		
L235Y/S267D (antibody)			15.9	0.0922
